Where “and” joins values, the source holds several entries; their conditions need not be identical. Identical values can stand only once.

First the molecules themselves.
B1: Glyceraldehyde-3-phosphate dehydrogenase, P00362 (parent)
chain: MAVKVGINGFGRIGRNVFRAALKNPDIEVVAVNDLTDANTLAHLLKYDSVHGRLDAEVSVNGNNLVVNGKEIIVKAERDPENLAWGEIGVDIVVESTGRFTKREDAAKHLEAGAKKVIISAPAKNEDITIVMGVNQDKYDPKAHHVISNASCTTNCLAPFAKVLHEQFGIVRGMMTTVHSYTNDQRILDLPHKDLRRARAAAESIIPTTTGAAKAVALVLPELKGKLNGMAMRVPTPNVSVVDLVAELEKEVTVEEVNAALKAAAEGELKGILAYSEEPLVSRDYNGSTVSSTIDALSTMVIDGKMVKVVSWYDNETGYSHRVVDLAAYIASKGL

In the data set the parent is B1. To be noted: Geobacillus stearothermophilus, pH 7.5, Thermal, DSC, KH2PO4/KOH 100 mM, reversible: no, structure 1GD1, whole UniProt chain shown.

Turning to Y285V, the “unfolding enthalpy (calorimetric)” value is 182 kcal/mol and 397 kcal/mol and 178 kcal/mol.
Still for that read-out and setting: the result for W312F reads 371 kcal/mol and 525 kcal/mol.
Regarding Y47G R53G, the “unfolding enthalpy (calorimetric)” value (transition: 3) was 214 kcal/mol and 127 kcal/mol and 180 kcal/mol.
Turning to D284G, the “unfolding enthalpy (calorimetric)” value is 140 kcal/mol and 148 kcal/mol and 119 kcal/mol.
On to Y47G S49G, for which, where the note is “transition: 3”, the midpoint of thermal melting (Tm) is 70.2 °C and 71.2 °C; the “unfolding enthalpy (calorimetric)” value came to 127 kcal/mol.
As to N315T, the melting temperature (Tm) was found to be 62.3 °C and the “unfolding enthalpy (calorimetric)” value was found to be 138 kcal/mol. Besides, the melting temperature (Tm) (transition: 3) came to 65.5 °C.
T36Q T40S L44Q: the Tm is 64.8 °C and 66.8 °C; the “unfolding enthalpy (calorimetric)” value is 215 kcal/mol and 176 kcal/mol. In addition, the “unfolding enthalpy (calorimetric)” value (transition: 3) was 215 kcal/mol and 127 kcal/mol.

(Values after FireProtDB (doi:10.1021/bi012084+).)
